In the supplement of paper PMC10567573:

B1: C1orf137 (parent)
chain: RQHHHQSSFPGSLPQETNLTLKVC

Variants of: B1
Experiment: protein stability index of a GFP-peptide fusion (GPS, HEK-293T) (PSI 1-6); higher = more stable
Conditions: c terminus: a fixed tail appended
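Further: lentivirally expressed fusions sorted by FACS into six bins by GFP to DsRed ratio, PSI derived from sequencing read proportions per bin multiplied by bin number.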

| Variant | protein stability index |
| --- | --- |
| RQHHHQSSFPGSLPQETNLTEKVC [L21E] | 4.5 |
| RQHHHQSSFPGSLPQETNLTNKVC [L21N] | 4.32 |
| RQHHHQSSFPGSLPQETNLTMKVC [L21M] | 3.79 |
| RQHHHQSSFPGSLPQETNLTDKVC [L21D] | 4.43 |
| RQHHHQSSFPGSLPQETNLTKKVC [L21K] | 3.79 |
| RQHHHQSSFPGSLPQETNSTLKVC [L19S] | 3.55 |
| RQHHHQSSFPGSLPQETNQTLKVC [L19Q] | 3.52 |
| RQHHHQSSFPGSLPQETNFTLKVC [L19F] | 2.47 |
| RQHHHQSSFPGSLPQETNMTLKVC [L19M] | 3.16 |
| RQHHHQSSFPGSLPQETNETLKVC [L19E] | 4.34 |
| RQHHHQSSFPGSLPQETNITLKVC [L19I] | 3.39 |
| RQHHHQSSFPGSLPQETNGTLKVC [L19G] | 3.98 |
| RQHHHQSSFPGSLPQETNYTLKVC [L19Y] | 2.95 |
| RQHHHQSSFPGSLPQETNTTLKVC [L19T] | 3.96 |
| RQHHHQSSFPGSLPQETNNTLKVC [L19N] | 3.49 |
| RQHHHQSSFPGSLPQETNPTLKVC [L19P] | 3.31 |
| RQHHHQSSFPGSLPQETNWTLKVC [L19W] | 4.19 |
| RQHHHQSSFPGSLPQETNKTLKVC [L19K] | 3.99 |
| RQHHHQSSFPGSLPQETNHTLKVC [L19H] | 4.14 |
| RQHHHQSSFPGSLPQETNDTLKVC [L19D] | 4.63 |
| RQHHHQSSFPGSLPQETNLTLKGC [V23G] | 4.43 |
| RQHHHQSSFPGSLPQETNLTLKIC [V23I] | 2.46 |
| RQHHHQSSFPGSLPQETNLTLKAC [V23A] | 3.78 |
| RQHHHQSSFPGSLPQETNLTLKTC [V23T] | 3.76 |

| Variant | protein stability index |
| --- | --- |
| RQHHHQSSFPGSLPQETNLTLKQC [V23Q] | 4.5 |
| RQHHHQSSFPGSLPQETNLTLKCC [V23C] | 3.41 |
| RQHHHQSSFPGSLPQETNLTLKDC [V23D] | 4.72 |
| RQHHHQSSFPGSLPQETNLTLKLC [V23L] | 3.03 |
| RQHHHQSSFPGSLPQETNLTLKKC [V23K] | 2.97 |
| RQHHHQSSFPGSLPQETNLTLKYC [V23Y] | 2.73 |
| RQHHHQSSFPGSLPQETNLTLKFC [V23F] | 2.5 |
| RQHHHQSSFPGSLPQETNLTLKEC [V23E] | 4.27 |
| RQHHHQSSFPGSLPQETNLTLKHC [V23H] | 4.2 |
| RQHHHQSSFPGSLPQETNLTLKRC [V23R] | 3.83 |
| RQHHHQSSFPGSLPQETNLTLKSC [V23S] | 3.73 |
| RQHHHQSSFPGSLPQETNLTLKPC [V23P] | 3.79 |
| RQHHHQSSFPGSLPQETNLTLKNC [V23N] | 3.34 |
| RQHHHQSSFPGSLPQETNLTLKWC [V23W] | 2.86 |
| RQHHHQSSFPGSLPQETNLTLKMC [V23M] | 3.33 |
| RQHHHQSSFPGSLPQETNLTLDVC [K22D] | 3.5 |
| RQHHHQSSFPGSLPQETNLTLNVC [K22N] | 2.92 |
| RQHHHQSSFPGSLPQETNLTLEVC [K22E] | 3.44 |
| RQHHHQSSFPGSLPQETNLTLAVC [K22A] | 2.57 |
| RQHHHQSSFPGSLPQETNLTLHVC [K22H] | 2.75 |
| RQHHHQSSFPGSLPQETNLTLIVC [K22I] | 2.49 |
| RQHHHQSSFPGSLPQETNLTLMVC [K22M] | 2.28 |
| RQHHHQSSFPGSLPQETNLTLQVC [K22Q] | 2.92 |
| RQHHHQSSFPGSLPQETNLTLGVC [K22G] | 3.42 |

| Variant | protein stability index |
| --- | --- |
| RQHHHQSSFPGSLPQETNLTLFVC [K22F] | 2.14 |
| RQHHHQSSFPGSLPQETNLTLLVC [K22L] | 1.94 |
| RQHHHQSSFPGSLPQETNLTLSVC [K22S] | 3.34 |
| RQHHHQSSFPGSLPQETNLTLRVC [K22R] | 2.28 |
| RQHHHQSSFPGSLPQETNLTLPVC [K22P] | 3.53 |
| RQHHHQSSFPGSLPQETNLTLTVC [K22T] | 2.43 |
| RQHHHQSSFPGSLPQETNLTLCVC [K22C] | 1.75 |
| RQHHHQSSFPGSLPQETNLTLYVC [K22Y] | 2.28 |
| RQHHHQSSFPGSLPQETNLPLKVC [T20P] | 3.62 |
| RQHHHQSSFPGSLPQETNLCLKVC [T20C] | 2.8 |
| RQHHHQSSFPGSLPQETNLDLKVC [T20D] | 4.1 |
| RQHHHQSSFPGSLPQETNLVLKVC [T20V] | 2.42 |
| RQHHHQSSFPGSLPQETNLMLKVC [T20M] | 2.63 |
| RQHHHQSSFPGSLPQETNLALKVC [T20A] | 3 |
| RQHHHQSSFPGSLPQETNLRLKVC [T20R] | 3.36 |
| RQHHHQSSFPGSLPQETNLWLKVC [T20W] | 2.18 |
| RQHHHQSSFPGSLPQETNLGLKVC [T20G] | 3.23 |
| RQHHHQSSFPGSLPQETNLELKVC [T20E] | 3.61 |
| RQHHHQSSFPGSLPQETNLKLKVC [T20K] | 2.64 |
| RQHHHQSSFPGSLPQETNLQLKVC [T20Q] | 3.83 |
| RQHHHQSSFPGSLPQETNLYLKVC [T20Y] | 1.75 |
| RQHHHQSSFPGSLPQETNLSLKVC [T20S] | 3.29 |
| RQHHHQSSFPGSLPQETNLLLKVC [T20L] | 2.32 |
| RQHHHQSSFPGSLPQETNLFLKVC [T20F] | 2.09 |

| Variant | protein stability index |
| --- | --- |
| RQHHHQSSFPGSLPQETNLNLKVC [T20N] | 3.16 |
| RQHHHQSSFPGSLPQETNLHLKVC [T20H] | 2.48 |
| RQHHHQSSFPGSLPQETNLILKVC [T20I] | 2.13 |
| RQHHHQSSFPGSLPQETNLTLKVS [C24S] | 3.41 |
| RQHHHQSSFPGSLPQETNLTLKVP [C24P] | 3.51 |
| RQHHHQSSFPGSLPQETNLTLKVV [C24V] | 2.29 |
| RQHHHQSSFPGSLPQETNLTLKVM [C24M] | 2.44 |
| RQHHHQSSFPGSLPQETNLTLKVH [C24H] | 3.37 |
| RQHHHQSSFPGSLPQETNLTLKVI [C24I] | 1.9 |
| RQHHHQSSFPGSLPQETNLTLKVE [C24E] | 4.19 |
| RQHHHQSSFPGSLPQETNLTLKVA [C24A] | 3.64 |
| RQHHHQSSFPGSLPQETNLTLKVG [C24G] | 3.75 |
| RQHHHQSSFPGSLPQETNLTLKVD [C24D] | 4.36 |
| RQHHHQSSFPGSLPQETNLTLKVY [C24Y] | 2.22 |
| RQHHHQSSFPGSLPQETNLTLKVN [C24N] | 3.7 |
| RQHHHQSSFPGSLPQETNLTLKVL [C24L] | 3.74 |
| RQHHHQSSFPGSLPQETNLTLKVR [C24R] | 4.68 |
| RQHHHQSSFPGSLPQETNLTLKVQ [C24Q] | 3.37 |
| RQHHHQSSFPGSLPQETNLTLKVW [C24W] | 2.9 |
| RQHHHQSSFPGSLPQETNLTLKVK [C24K] | 4.11 |
| RQHHHQSSFPGSLPQETNLTLKVT [C24T] | 3.37 |
| RQHHHQSSFPGSLPQETNLTLKVF [C24F] | 1.9 |
